Results published in PMC5902045, “Degenerate Pax2 and Senseless binding motifs improve detection of low-affinity sites required for enhancer specificity”.

Assays:
[1] = target: Senseless (Sens) (UniProt Q9N658 413-520); experiment: EMSA; Native PAGE EMSA, probe 0.36 uM, LI-COR imaging; protein amounts in ng; buffer, salt, pH and temperature not given (cited to refs 43, 64); conditions: protein: recombinant; tags: His
[2] = target: Pax2 (UniProt Q8IM96 175-301); experiment: as above; conditions: protein: recombinant; tags: His
Chain of Pax2 (Q8IM96 entry or part of it): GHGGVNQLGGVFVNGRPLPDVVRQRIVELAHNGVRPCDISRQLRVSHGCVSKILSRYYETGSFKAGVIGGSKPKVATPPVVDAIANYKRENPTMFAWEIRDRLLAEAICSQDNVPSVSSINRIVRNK

Chain of Senseless (Sens) (Q9N658 413-520): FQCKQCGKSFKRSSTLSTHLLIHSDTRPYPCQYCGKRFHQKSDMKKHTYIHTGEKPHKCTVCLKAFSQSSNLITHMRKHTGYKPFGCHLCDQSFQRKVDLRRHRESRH

Row | Binder | binding result [1] | binding result [2]
1 | RhoA-SM/SM (dsDNA) DNA 1: TCGTTGCAGTTGGTTGATTGACATTTTTATTATGCATGGTTGATTGA DNA 2: TCAATCAACCATGCATAATAAAAATGTCAATCAACCAACTGCAACGA | no binding | –
2 | RhoA-SM/SS (dsDNA) DNA 1: TCGTTGCAGTTGGTTGATTGACATTTTTATTATGCAGCACTGATTGA DNA 2: TCAATCAGTGCTGCATAATAAAAATGTCAATCAACCAACTGCAACGA | binds | –
3 | RhoA-SM/SWT (dsDNA) DNA 1: TCGTTGCAGTTGGTTGATTGACATTTTTATTATGCATCATTGATTGA DNA 2: TCAATCAATGATGCATAATAAAAATGTCAATCAACCAACTGCAACGA | binds | –
4 | RhoA-WT (dsDNA) DNA 1: TCGTTGCAGTTCATTGATTGACATTTTTATTATGCATATTCGCTGGT DNA 2: ACCAGCGAATATGCATAATAAAAATGTCAATCAATGAACTGCAACGA | binds | binds
5 | RhoA-SS (strong Sens site) (dsDNA) DNA 1: TCGTTGCAGTGCACTGATTGACATTTTTATTATGCATATTCGCTGGT DNA 2: ACCAGCGAATATGCATAATAAAAATGTCAATCAGTGCACTGCAACGA | binds | –
6 | RhoA-PM (Pax2 site mutant) (dsDNA) DNA 1: TCGGGTCAGTTCATTGATTGACATTTTTATTATGCATATTCGCTGGT DNA 2: ACCAGCGAATATGCATAATAAAAATGTCAATCAATGAACTGACCCGA | binds | –
7 | RhoA-PSSS (strong Pax2 and Sens sites) (dsDNA) DNA 1: TCGTCACGGTGCACTGATTGACATTTTTATTATGCATATTCGCTGGT DNA 2: ACCAGCGAATATGCATAATAAAAATGTCAATCAGTGCACCGTGACGA | binds | binds
8 | RhoA-PS (strong Pax2 site) (dsDNA) DNA 1: TCGTCACGGTTCATTGATTGACATTTTTATTATGCATATTCGCTGGT DNA 2: ACCAGCGAATATGCATAATAAAAATGTCAATCAATGAACCGTGACGA | binds | binds
9 | RhoA-SM (Sens site mutant) (dsDNA) DNA 1: TCGTTGCAGTTGGTTGATTGACATTTTTATTATGCATATTCGCTGGT DNA 2: ACCAGCGAATATGCATAATAAAAATGTCAATCAACCAACTGCAACGA | no binding | –
